Article PMC8316672 (Journal of Molecular Biology, 2021)
Changes are numbered by the printed parent chain.

B1: Fab 15033 (Fab, V domains shown)
VH: EVQLVESGGGLVQPGGSLRLSCAASGFDLGGYSMHWVRQAPGKGLEWVAGIYASGGATAYADSVKGRFTISADTSKNTAYLQMNSLRAEDTAVYYCARSYYYGGFGMDYWGQGTLVTVSS
VL: DIQMTQSPSSLSASVGDRVTITCRASQSVSSAVAWYQQKPGKAPKLLIYSASDLYSGVPSRFSGSRSGTDFTLTISSLQPEDFATYYCQQSYRYPITFGQGTKVEIK
B2: Fab 15033-7 (Fab, V domains shown)
VH: B1 VH
VL: B1 VL with Y92H, R93T

Biological target: SARS-CoV-2 RBD (residues 328–528), deglycosylated, His tag removed (crystallography) (SARS-CoV-2, UniProt P0DTC2)
Test: crystal structure

| Binder | binding result |
| --- | --- |
| B1 | binds |
| B2 | binds |
